# From publication PMC8954901, “The Family Keeps on Growing: Four Novel Fungal OYEs Characterized” (International Journal of Molecular Sciences, 2022)
# T1: AnOYE8 (Aspergillus niger, UniProt A2QBV3)
# T1 construct: gene An02g01330
# T1 sequence (A2QBV3 1-421): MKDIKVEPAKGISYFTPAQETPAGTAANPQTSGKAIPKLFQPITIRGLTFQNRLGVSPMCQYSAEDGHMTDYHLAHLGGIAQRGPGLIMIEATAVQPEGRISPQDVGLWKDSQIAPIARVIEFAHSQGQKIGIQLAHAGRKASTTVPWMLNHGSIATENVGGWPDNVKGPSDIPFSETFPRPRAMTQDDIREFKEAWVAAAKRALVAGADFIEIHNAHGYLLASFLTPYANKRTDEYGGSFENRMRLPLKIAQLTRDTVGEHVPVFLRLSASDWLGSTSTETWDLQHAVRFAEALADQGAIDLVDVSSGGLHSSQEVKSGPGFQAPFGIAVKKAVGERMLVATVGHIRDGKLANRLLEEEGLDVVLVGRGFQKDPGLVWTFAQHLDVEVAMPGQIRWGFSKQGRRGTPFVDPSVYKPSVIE
# B1: BfOYE4 (Botrytis cinerea B05.10) (protein)
# chain: MSTPTPHPQHGVPCGTSTPRPGLLNTPAPGVPFYTPLQSPPSGTALHLSPSTPKLFTPLKIRSLTLQNRIMLSPMCQYSASNGHFTPWHMAHLGGIISRGPGLSMVEATSVLPEGRITPEDSGLWLDSQGDKLKEVVQFAHSQGQLIGIQLSHAGRKASMVAPWLDRSAVATEEAGGWPTKVKGPSAIPYDEHHYKPSAMTLEDIQEFKDAWAASLKRALKAGFDVIEIHNAHGYLLHEFVSPVSNKRTDQYGGSFENRIRLTLEIVEITRKIIPESMPLFLRISATDWLDYEGFGEESWTVADSARLAGILADRGVDLMDVSSGANHPRQKITAGLGYQAPFAKEIKRVVGERMLVGTVGMIGSGRQAEGLLSGMGGERGVDEGEEEEGKGTELDLVIVARGFQKNPGLVWEWAEELGVRIMVAHQMRWGFRGKAGGH
# notes: N-terminal His6 tag, E. coli BL21(DE3), 421 residues, dimer in crystal, several oligomeric species in solution; cloning reported elsewhere
# B2: AnOYE2 (Aspergillus niger CBS 513.88) (protein)
# chain: MCSKLFQPLQIGKTNLEHRVVMAPLTRFRADSQHVPLPMATTYYEQRASVPGTLLIAEATLISPSAGGVPHAPGVWSEEQVNGWKKITEAVHKKGSFIFCQLIAAGRAADPAQLHAEGGFMLHAPSPIPIEPGMPVPKELDEIEVQEIINDFAMAAKNAIRAGFDGVEIHGANGYLVDQFLQDVSNKRNDKWGGSIPNRARFGLEVAKAVADAIGADRLGFRLSPWNTWQSMKMVDPVPQFTYFVERLQQLGLAYLHVIESRVINNVDCEKEGSIKFLLDVWGKSAPVIVAGGYRPENVENALEEEYKDYKVAVAFGRHFIANPDLPFRIRHDIHLNPYDRESFYTPLQENGYTDYPFSAEFIKSKTKC
# Assays:
# AnOYE8 = target: T1, AnOYE8; test: X-ray crystal structure, […] Å; assay type: binding; conditions: active site, non-covalently bound; pH 6.5 crystals
# [1] = target: BfOYE1 (Botryotinia fuckeliana B05.10); test: native gel or EMSA
# [2] = target: BfOYE1 (Botryotinia fuckeliana B05.10); test: SEC; analytical gel filtration, Superdex 200 10/300 GL, 150 ug purified protein, Tris-HCl pH 8.0 50 mM, NaCl 150 mM, 1 mL/min; apparent molecular weight from a calibration curve
# [3] = target: AnOYE8 (Aspergillus niger CBS 513.88); test: native gel or EMSA; BN-PAGE, NativePAGE 3 to 12% Bis-Tris gel, 12.5 ug of sample from each gel filtration peak, 150 V for 2 h; BSA and HSA for comparison of the MWs
# [4] = target: AnOYE8 (Aspergillus niger CBS 513.88); test: crystal structure; N-terminal His6-tagged AnOYE8, 15 mg/mL in Tris-HCl pH 8.0 50 mM; PEG 5000 MME 18% w/v, MES pH 6.5 0.1 M, ammonium sulphate 0.2 M, 293 K; space group C121, four molecules per asymmetric unit
# [5] = target: AnOYE8 (Aspergillus niger CBS 513.88); test: SEC; analytical gel filtration, Superdex 200 10/300 GL, 150 ug purified protein, Tris-HCl pH 8.0 50 mM, NaCl 150 mM, 1 mL/min; apparent molecular weight from a calibration curve
# purified protein [6] = substrate: O=C1C=CC(=O)N1; test: purified protein; assay type: biochemical, Botrytis cinerea; conditions: NADPH 100 µM, Tris-HCl 50 mM pH 8.0, 25 °C, enzyme 20 nM
# purified protein [7] = substrate: NC(=O)C1=CN([C@@H]2O[C@H](COP(=O)(O)OP(=O)(O)OC[C@H]3O[C@@H](n4cnc5c(N)ncnc54)[C@H](OP(=O)(O)O)[C@@H]3O)[C@@H](O)[C@H]2O)C=CC1; test: purified protein; assay type: biochemical, Botrytis cinerea; conditions: maleimide 1 mM, Tris-HCl 50 mM pH 8.0, 25 °C, enzyme 20 nM
# purified protein [8] = substrate: C=CC(=O)CCCCC; test: purified protein; assay type: biochemical, Botrytis cinerea; conditions: NADPH 100 µM, Tris-HCl 50 mM pH 8.0, 25 °C, enzyme 200 nM
# purified protein [9] = substrate: O=C1C=CCC1; test: purified protein; assay type: biochemical, Botrytis cinerea; conditions: NADPH 100 µM, Tris-HCl 50 mM pH 8.0, 25 °C, enzyme 200 nM
# purified protein [10] = substrate: CC1=CCCCC1=O; test: purified protein; assay type: biochemical, Botrytis cinerea; conditions: NADPH 100 µM, Tris-HCl 50 mM pH 8.0, 25 °C, enzyme 200 nM
# purified protein [11] = substrate: O=C1C=CCCC1; test: purified protein; assay type: biochemical, Botrytis cinerea; conditions: NADPH 100 µM, Tris-HCl 50 mM pH 8.0, 25 °C, enzyme 200 nM
# purified protein [12] = substrate: O=C1C=CC(=O)N1; test: purified protein; assay type: biochemical, Aspergillus niger; conditions: NADPH 100 µM, Tris-HCl 50 mM pH 8.0, 25 °C, enzyme 20 nM
# purified protein [13] = substrate: NC(=O)C1=CN([C@@H]2O[C@H](COP(=O)(O)OP(=O)(O)OC[C@H]3O[C@@H](n4cnc5c(N)ncnc54)[C@H](OP(=O)(O)O)[C@@H]3O)[C@@H](O)[C@H]2O)C=CC1; test: purified protein; assay type: biochemical, Aspergillus niger; conditions: maleimide 1 mM, Tris-HCl 50 mM pH 8.0, 25 °C, enzyme 20 nM
molecule,measurement,setting,value
Cc1cc2nc3c(=O)[nH]c(=O)nc-3n(C[C@H](O)[C@H](O)[C@H](O)COP(=O)(O)O)c2cc1C [FMN],"X-ray crystal structure, 2.8 Å",AnOYE8,AnOYE8 accommodated a non-covalently bound FMN cofactor molecule
BfOYE1 (enzyme),stoichiometry N,[1],2
same,stoichiometry N,[2],2
AnOYE8 (enzyme),stoichiometry N,[3],2
same,stoichiometry N,[4],2
same,stoichiometry N,[5],2
B1,Km,purified protein [6],70 ± 10 µM
same,kcat,purified protein [6],36.3 ± 1.12 s⁻¹
same,kcat/Km,purified protein [6],519000 M⁻¹ s⁻¹
same,Km,purified protein [7],130 ± 20 µM
same,kcat,purified protein [7],89.2 ± 3.37 s⁻¹
same,kcat/Km,purified protein [7],686000 M⁻¹ s⁻¹
same,Km,purified protein [8],2720 ± 500 µM
same,kcat,purified protein [8],22.6 ± 1.14 s⁻¹
same,kcat/Km,purified protein [8],8300 M⁻¹ s⁻¹
same,Km,purified protein [9],1070 ± 120 µM
same,kcat,purified protein [9],1.06 ± 0.03 s⁻¹
same,kcat/Km,purified protein [9],1000 M⁻¹ s⁻¹
same,Km,purified protein [10],1830 ± 180 µM
same,kcat,purified protein [10],0.56 ± 0.013 s⁻¹
same,kcat/Km,purified protein [10],300 M⁻¹ s⁻¹
same,Km,purified protein [11],650 ± 90 µM
same,kcat,purified protein [11],2.57 ± 0.07 s⁻¹
same,kcat/Km,purified protein [11],3900 M⁻¹ s⁻¹
B2,Km,purified protein [12],10 ± 0 µM
same,kcat,purified protein [12],7.38 ± 0.66 s⁻¹
same,kcat/Km,purified protein [12],738000 M⁻¹ s⁻¹
same,Km,purified protein [13],37 ± 10 µM
same,kcat,purified protein [13],8 ± 0.4 s⁻¹
same,kcat/Km,purified protein [13],216000 M⁻¹ s⁻¹
